Measured values taken from US20140271457A1 (AbbVie / Abbott, published 2014).

Target: Recombinant Human TNF-α/TNFSF1A (human, UniProt P01375 77-233)
Test: cell-based or functional assay

Chain of Recombinant Human TNF-α/TNFSF1A (P01375 77-233 limits assumed): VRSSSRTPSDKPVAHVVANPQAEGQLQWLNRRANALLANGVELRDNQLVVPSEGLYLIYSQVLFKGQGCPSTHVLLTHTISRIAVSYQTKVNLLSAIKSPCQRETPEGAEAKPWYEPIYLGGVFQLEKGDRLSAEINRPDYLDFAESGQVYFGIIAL

B1: DVD2688 (bispecific antibody, IgG1)
VH: EVTLRESGPGLVKPTQTLTLTCTLYGFSLSTSDMGVDWIRQPPGKGLEWLAHIWWDDVKRYNPALKSRLTISKDTSKNQVVLKLTSVDPVDTATYYCARTVSSGYIYYAMDYWGQGTLVTVSSGGGGSGGGGSEVQLVESGGGLVQPGGSLRLSCAASGFTFSNYGVTWVRQAPGKGLEWVSMIWADGSTHYASSVKGRFTISRDNSKNTLYLQMNSLRAEDTAVYYCAREWQHGPVAYWGQGTLVTVSS
VL: DIQMTQSPSSLSASVGDRVTISCRASQDIRNYLNWYQQKPGKAPKLLIFYTSKLHSGVPSRFSGSGSGTDYTLTISSLQPEDIATYYCQQGLTPPLTFGGGTKVEIKRGGSGGGGSGDIQMTQSPSSLSASVGDRVTITCRASQLVSSAVAWYQQKPGKAPKLLIYWASARHTGVPSRFSGSGSGTDFTLTISSLQPEDFATYYCQQHYKTPFTFGQGTKLEIKR
  C-Terminal VD huTNFα Neutralization Assay IC50: 0.093 nM

B2: DVD2689 (bispecific antibody, IgG1)
VH: EVTLRESGPGLVKPTQTLTLTCTLYGFSLSTSDMGVDWIRQPPGKGLEWLAHIWWDDVKRYNPALKSRLTISKDTSKNQVVLKLTSVDPVDTATYYCARTVSSGYIYYAMDYWGQGTLVTVSSASTKGPEVQLVESGGGLVQPGGSLRLSCAASGFTFSNYGVTWVRQAPGKGLEWVSMIWADGSTHYASSVKGRFTISRDNSKNTLYLQMNSLRAEDTAVYYCAREWQHGPVAYWGQGTLVTVSS
VL: DIQMTQSPSSLSASVGDRVTISCRASQDIRNYLNWYQQKPGKAPKLLIFYTSKLHSGVPSRFSGSGSGTDYTLTISSLQPEDIATYYCQQGLTPPLTFGGGTKVEIKRTVAAPDIQMTQSPSSLSASVGDRVTITCRASQLVSSAVAWYQQKPGKAPKLLIYWASARHTGVPSRFSGSGSGTDFTLTISSLQPEDFATYYCQQHYKTPFTFGQGTKLEIKR
  C-Terminal VD huTNFα Neutralization Assay IC50: 0.076 nM

B3: DVD2692 (bispecific antibody, IgG1)
VH: EVTLRESGPGLVKPTQTLTLTCTLYGFSLSTSDMGVDWIRQPPGKGLEWLAHIWWDDVKRYNPALKSRLTISKDTSKNQVVLKLTSVDPVDTATYYCARTVSSGYIYYAMDYWGQGTLVTVSSASTKGPSVFPLAPEVQLVESGGGLVQPGGSLRLSCAASGFTFSNYGVTWVRQAPGKGLEWVSMIWADGSTHYASSVKGRFTISRDNSKNTLYLQMNSLRAEDTAVYYCAREWQHGPVAYWGQGTLVTVSS
VL: DIQMTQSPSSLSASVGDRVTISCRASQDIRNYLNWYQQKPGKAPKLLIFYTSKLHSGVPSRFSGSGSGTDYTLTISSLQPEDIATYYCQQGLTPPLTFGGGTKVEIKRTVAAPDIQMTQSPSSLSASVGDRVTITCRASQLVSSAVAWYQQKPGKAPKLLIYWASARHTGVPSRFSGSGSGTDFTLTISSLQPEDFATYYCQQHYKTPFTFGQGTKLEIKR
  C-Terminal VD huTNFα Neutralization Assay IC50: 0.04 nM

B4: DVD2738 (bispecific antibody, IgG1)
VH: EVTLRESGPGLVKPTQTLTLTCTLYGFSLSTSDMGVDWIRQPPGKGLEWLAHIWWDDVKRYNPALKSRLTISKDTSKNQVVLKLTSVDPVDTATYYCARTVSSGYIYYAMDYWGQGTLVTVSSGGGGSGGGGSEVQLVESGGGLVQPGGSLRLSCAASGFTFSNYGVEWVRQAPGKGLEWVSGIWADGSTHYADTVKSRFTISRDNSKNTLYLQMNSLRAEDTAVYYCAREWQHGPVAYWGQGTLVTVSS
VL: DIQMTQSPSSLSASVGDRVTISCRASQDIRNYLNWYQQKPGKAPKLLIFYTSKLHSGVPSRFSGSGSGTDYTLTISSLQPEDIATYYCQQGLTPPLTFGGGTKVEIKRGGSGGGGSGDIQMTQSPSSLSASVGDRVTITCKASQLVSSAVAWYQQKPGKAPKLLIYWASTLHTGVPSRFSGSGSGTDFTLTISSLQPEDFATYYCQQHYRTPFTFGQGTKLEIKR
  C-Terminal VD huTNFα Neutralization Assay IC50: 0.452 nM

B5: DVD2739 (bispecific antibody, IgG1)
VH: EVTLRESGPGLVKPTQTLTLTCTLYGFSLSTSDMGVDWIRQPPGKGLEWLAHIWWDDVKRYNPALKSRLTISKDTSKNQVVLKLTSVDPVDTATYYCARTVSSGYIYYAMDYWGQGTLVTVSSASTKGPEVQLVESGGGLVQPGGSLRLSCAASGFTFSNYGVEWVRQAPGKGLEWVSGIWADGSTHYADTVKSRFTISRDNSKNTLYLQMNSLRAEDTAVYYCAREWQHGPVAYWGQGTLVTVSS
VL: DIQMTQSPSSLSASVGDRVTISCRASQDIRNYLNWYQQKPGKAPKLLIFYTSKLHSGVPSRFSGSGSGTDYTLTISSLQPEDIATYYCQQGLTPPLTFGGGTKVEIKRTVAAPDIQMTQSPSSLSASVGDRVTITCKASQLVSSAVAWYQQKPGKAPKLLIYWASTLHTGVPSRFSGSGSGTDFTLTISSLQPEDFATYYCQQHYRTPFTFGQGTKLEIKR
  C-Terminal VD huTNFα Neutralization Assay IC50: 0.517 nM

B6: DVD2741 (bispecific antibody, IgG1)
VH: EVTLRESGPGLVKPTQTLTLTCTLYGFSLSTSDMGVDWIRQPPGKGLEWLAHIWWDDVKRYNPALKSRLTISKDTSKNQVVLKLTSVDPVDTATYYCARTVSSGYIYYAMDYWGQGTLVTVSSASTKGPEVQLVESGGGLVQPGGSLRLSCAASGFTFSNYGVEWVRQAPGKGLEWVSGIWADGSTHYADTVKSRFTISRDNSKNTLYLQMNSLRAEDTAVYYCAREWQHGPVAYWGQGTLVTVSS
VL: DIQMTQSPSSLSASVGDRVTISCRASQDIRNYLNWYQQKPGKAPKLLIFYTSKLHSGVPSRFSGSGSGTDYTLTISSLQPEDIATYYCQQGLTPPLTFGGGTKVEIKRTVAAPSVFIFPPDIQMTQSPSSLSASVGDRVTITCKASQLVSSAVAWYQQKPGKAPKLLIYWASTLHTGVPSRFSGSGSGTDFTLTISSLQPEDFATYYCQQHYRTPFTFGQGTKLEIKR
  C-Terminal VD huTNFα Neutralization Assay IC50: 0.202 nM

B7: DVD2742 (bispecific antibody, IgG1)
VH: EVTLRESGPGLVKPTQTLTLTCTLYGFSLSTSDMGVDWIRQPPGKGLEWLAHIWWDDVKRYNPALKSRLTISKDTSKNQVVLKLTSVDPVDTATYYCARTVSSGYIYYAMDYWGQGTLVTVSSASTKGPSVFPLAPEVQLVESGGGLVQPGGSLRLSCAASGFTFSNYGVEWVRQAPGKGLEWVSGIWADGSTHYADTVKSRFTISRDNSKNTLYLQMNSLRAEDTAVYYCAREWQHGPVAYWGQGTLVTVSS
VL: DIQMTQSPSSLSASVGDRVTISCRASQDIRNYLNWYQQKPGKAPKLLIFYTSKLHSGVPSRFSGSGSGTDYTLTISSLQPEDIATYYCQQGLTPPLTFGGGTKVEIKRTVAAPDIQMTQSPSSLSASVGDRVTITCKASQLVSSAVAWYQQKPGKAPKLLIYWASTLHTGVPSRFSGSGSGTDFTLTISSLQPEDFATYYCQQHYRTPFTFGQGTKLEIKR
  C-Terminal VD huTNFα Neutralization Assay IC50: 0.129 nM

B8: DVD2783 (bispecific antibody, IgG1)
VH: EVQLVQSGAEVKKPGASVKVSCKASGYTFANYGIIWVRQAPGQGLEWMGWINTYTGKPTYAQKFQGRVTMTTDTSTSTAYMELSSLRSEDTAVYYCARKLFTTMDVTDNAMDYWGQGTTVTVSSGGGGSGGGGSEVTLRESGPGLVKPTQTLTLTCTLYGFSLSTSDMGVDWIRQPPGKGLEWLAHIWWDDVKRYNPALKSRLTISKDTSKNQVVLKLTSVDPVDTATYYCARTVSSGYIYYAMDYWGQGTLVTVSS
VL: DIQMTQSPSSLSASVGDRVTITCRASQDISQYLNWYQQKPGKAPKLLIYYTSRLQSGVPSRFSGSGSGTDFTLTISSLQPEDFATYFCQQGNTWPPTFGQGTKLEIKRGGSGGGGSGDIQMTQSPSSLSASVGDRVTISCRASQDIRNYLNWYQQKPGKAPKLLIFYTSKLHSGVPSRFSGSGSGTDYTLTISSLQPEDIATYYCQQGLTPPLTFGGGTKVEIKR
  N-Terminal VD huTNFα Neutralization Assay IC50: 8 pM
